Results reported in patent US7211241B2, “Cascade polymer complexes, process for their production and pharmaceutical agents containing said complexes” (Schering Aktiengesellschaft, priority 1995, dated 2007).

Tests used:
[1] = rats; cited from earlier work
[2] = In vivo comparison with an extracellular contrast medium: blood concentrations of Gd and Dy in rats with ligated renal vessels; details: i.v.; for diffusion in the interstitium: compound 1 and compound 2 compared in the same animals; for time until equilibrium is reached (constant blood level): examination period 15 minutes
Description: FIG. 1 is a graph of the measured blood concentrations of Gd (compound 1) and Dy (compound 2) in rats (n=5) with ligated renal vessels, as described in the above Example for an In Vivo Comparison with an Extracellular Contrast Medium.
The suitability of the compound described in Example 1k) as blood-pool-agent is shown in the following test.
As test animals, five male (Schering-SPF) rats that are 300–350 g in weight are used. Before the test, the abdomen is opened, the intestines are shifted and then the renal vessels (arterial+venous) of both sides are ligated through the rear peritoneum with a surgical needle. Then, the abdominal cavity is closed again. 0.3 ml (respectively 50 mmol/L) of the following contrast medium solution per animal is then administered intravenously: mixture of 1 part each of the compound of Example 1k), named compound 1 below, and the dysprosium complex of 10-(1-hydroxymethyl-2,3-dihydroxypropyl)-1,4,7-tris(carboxymethyl)-1,4,7,10-tetraazacyclododecane, produced analogously to the instructions in European Patent Application EP 448 191, named compound 2 below. Blood samples are taken with a catheter in the common carotid artery at the following times: 15, 30, 45, 60, 90 seconds, 3, 5, 10, 15 minutes p.i. In the blood samples obtained, the concentrations of gadolinium (Gd) and dysprosium (Dy) are measured with the aid of atomic emission spectrometry (ICP-AES) in each case in a parallel manner. The portion of the injected contrast medium of compound 1 (Gd) and compound 2 (Dy., comparison substance), remaining in the blood space, can be compared in the same animals by the different marking. Since a renal excretion is not possible, the decrease of the blood concentration can be attributed only to a distribution in the blood spaces and to the diffusion in the interstitial tissue.

[3] = MR angiography on rabbits; type: in vivo; details: i.v. 50 μmol of Gd/kg of body weight, 1.5 tesla
Description: The compound cited under Example 1k was studied on rabbits (CH. R. Kisslegg, ≈4 kg of body weight) in an MR angiography experiment (Ganzkörper [whole-Body] MRT System Siemens Vision, 1.5 tesla, FISP 3D; TR: 400 ms; TE 15 ms; flip angle: 45°; coronal).
In a precontrast picture only one to two major vessels are visible (e.g., abdominal aorta) in relatively poor contrast (signal intensity SI of these vessels against the background).

Row | Molecule | excretion route [1] | behaviour as blood-pool contrast medium [2] | diffusion in the interstitium [2] | blood concentrations ([2]; compound 1 versus compound 2, up to 15 minutes p.i.) | time until equilibrium is reached (constant blood level) [2] | blood vessels visible after administration of contrast medium [3] | contrast (SI of the vessels/SI of the background) ([3]; versus precontrast picture)
1 | polylysine-GdDTPA | excreted unchanged by glomerular filtration through the kidneys |  |  |  |  |  | 
2 | 24-mer-Gd-complex of N-(5-DO3A-yl-4-oxo-3-azahexanoyl)-cascade polyamide based on N,N,N′,N′,N″,N″-hexakis[2-(trilysylamino)-ethyl]-trimesic acid triamide [Example 1k] |  | behaves as a blood-pool contrast medium | considerably slowed-down | constantly higher | no equilibrium is reached | a wide variety of minor blood vessels and capillaries | marked increase
3 | O=C([O-])CN1CCN(CC(=O)[O-])CCN(C(CO)C(O)CO)CCN(CC(=O)[O-])CC1.[Dy+3] (stereo not drawn) [compound 2, dysprosium complex of 10-(1-hydroxymethyl-2,3-dihydroxypropyl)-1,4,7-tris(carboxymethyl)-1,4,7,10-tetraazacyclododecane, reference compound] |  |  | diffuses quickly into the interstitial spaces of the body |  | 3–5 minutes p.i. |  | 
